system: MS2 coat protein; experiment: apparent KD of MS2 coat protein; higher = weaker reporter binding; settings: Eterna round: R107; input ligand: arginine 13.2 mM
Summary of the method: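 Values are apparent KD, taken as the median for each design of fits to normalised binding curves from individual clusters. The designed RNA switches were transcribed on-chip from Illumina sequencing clusters and exposed to SNAP-549-labelled MS2 coat protein at twofold increasing amounts from 0.7 or 1.5 nM to 3 µM. Titration used 100 mM Tris-HCl pH 7.5, 80 mM KCl and 4 mM MgCl2, without or with constant ligand.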

Point of comparison: “UACAUGAGGAUCACCCAUGUAUUGCCGGUACGAGGACCGGUACGGCCGCCACUCGGAGCAUGAGGAUCACCCAUGUGCUGCUAUG [Same State Trypophan A GF 24]”, “apparent KD of MS2 coat protein” value 35.5 nM. Against it:
- UGACGAUACCUGGAUACCAGCGACAUGAGGAUCACCCAUGUAUGAGGAUCAGCCAUGUUAUGCCCUUGGCAGCCACGAAGGUCUU [CSCMULLIN] — within 1.5-fold, 28.9 nM
- UACAUGAGGAUCACCCAUGUAUAGAGGGAUACCAGUGUCAGUGAGCACCCUUGGCAGCCCGCGAACAAUGGGUGCGCUAUAUAGU [#20 Exclusion-TheophyllineA] — 2-fold lower, 18.2 nM
- AAUCGUAAGGCGGCCGCCACUACACAUGAGGAUCACCCAUGUCUCGCGGGCUUGCGUUGGGAUAGUAGGACCGGGCCAGUAAUAA [Exclusion - Tryptophan B (Freestyle 13)] — 2.1-fold lower, 17.1 nM
- GUAGCUGAGUGUGAUACCAGAAACGACGUCCUUUAUCAUAACAUGAGGAUCACCCAUGUCUUCCCUUGGCAGCACUUUUCGGUCU [theeternabot_exclusion_MS2_Theo_B_24] — within 1.5-fold, 29.6 nM
- ACAUGAGGCUCACCCAUGUGUAGUGGGUGGCGAGGACCGGUACGGCCGCCACUCGGCAACAUGAGGAUCACCCAUGUAAGGCCCU [RNA Blob] — within 1.5-fold, 39.6 nM
- AUCGUACCUGAUGAUACCAGCAAGUGAUCAUAACAUGAGGAUCACCCAUGUAAUCAGUGAUGCCCUUGGCAGCAUAAUCGAUACA [Same State - Theophylline B (Freestyle 4)] — 2.6-fold higher, 91.6 nM
- AUUCAUGGAAACAUGACAUACAUAUCCGGUCGAGGACCGGUACGGCCGCCACUCGUUUGGAGGCACAUGAGGAUCACCCAUGUUA [SS Tryp A #8] — 1.7-fold lower, 21.3 nM
- GGCCGGUGCGCUUUGAAGCGACGGCGUGAUACCAGAUGUAAGAGCGUCCCUUGGCAGCACGUUUACAUGAGGAUCACCCAUGUCU [Zaveusxe] — within 1.5-fold, 53.2 nM
- UAGGUGAUCUUCAACGGAAAACGUUGUGAUACCAGCCAACAAUACGGCCCUUGGCAGCACAUGAGGAUCACCCAUGUGUACACCG [Vetizaatdi] — within 1.5-fold, 25.6 nM
- UGUAACAUGAGGAUCACCCAUGUGAGUGAUACCAGAUUAGUAGUAGUCCCUUGGCAGCAUAUUGGGCGAGUGUAUAGUCUAUGCG [Same State - Theophylline A (Freestyle 10)] — 2.6-fold higher, 94 nM
- UAAUAAUUCCUCAUGUCACGAGUGGCAUAACGAGGACCGGUACGGCCGCCACUCGAACAUGAGGAUCACCCAUGUAGCCACUCGA [M'-T'-T-MS2-T'' - Design 4] — 1.6-fold higher, 56.7 nM
- ACAUGAGGAUCACCCAUGUAGUGGCACGAUACCAGCUGAUCCCGUGGCCCUUGGCAGCGUCCGGUGUGGUGCGCCGGGAUGGAGC [ZSZMULLIN] — 1.6-fold lower, 21.8 nM
- GCACAUGAGGAUCACCCAUGUACAACUGAAGGAGCGAGACAGAACUCAGGUAGGUCGCAGAAUGCACAAUAGCAUACGACAUGGG [Exclusion Arginine A GF20] — 1.8-fold lower, 20.2 nM
- GCCUGGGAUACGGCCGCCACUACAUGAGGAUCACCCAUGUAAUAUUUAUUAGAAGAGAGGGUAUGUAGGACCGGGUAAGGAAGGC [e-trypB-0] — 2.5-fold lower, 14.3 nM
- CUUCUGAAAGCAAUGGGAUCUGUUAUUGAUACCAGCAUCUGAUUUUGCCCUUGGCAGCAAGAAACAUGAGGAUCACCCAUGUGGC [theeternabot_exclusion_MS2_Theo_A_19] — 1.7-fold lower, 21.4 nM
- ACAUGAGGAUCACCCAUGUUUGAUGUUCCUCGAGGACCGGUACGGCCGCCACUCGAACGAGUGGCACGCGAGUGCGCACUCGCGU [aTa] — 2.5-fold lower, 14.3 nM
- CAUGUGAAAAUAAGAAGAAGAAGAAUAAAUCGAGGACCGGUACGGCCGCCACUCGUCGAAUCACAUGAGGAUCACCCAUGUAGCC [Tryptofun] — within 1.5-fold, 26.3 nM
- GCACCAGGUACGGAUACCAGACUCUGCCGAUUGGGUGAACAUGAGGAUCACCCAUGUUAGGUCCCUUGGCAGCCGUACCUGGUGC [#18 Exclusion-TheophyllineB] — within 1.5-fold, 26.4 nM
- CGGACAUGAGGAUCACCCAUGUCGUCGACGCGAGGACCGGUACGGCCGCCACUCGCAUGCCAAUGAGCGCAUGCGGCCUGGGUAU [Exclusion Tryp A GF5] — 2.2-fold lower, 15.8 nM
- AGGUAUGAUCCGGAUACCAGCGAACAUGAGGAUCACCCAUGUGACCUGAGAUAGGCUCUACGCCCUUGGCAGCCGCGAUCGCAGA [Same State Theophylline B GF11] — 3.5-fold lower, 10.1 nM
- UUUUAGCAUCGAAGGAGCGCUGGUAGGUGACACAUGAGGAUCACCCAUGUGCUCCUUGCCGAGCAGGUAGGUCGCGAUGCUAUUU [SSAB NP+V+V2 #8] — within 1.5-fold, 31.4 nM
- GCCGGGCCCUCGGCCGCCACUGAGAGAGUCGUGUGAACAUGAGGAUCACCCAUGUAAUAUAUAUACAGGACCGGGAGGGCCCGGC [4.W] — 3-fold lower, 11.9 nM
- AGACGAGAAGAGGUUUACCCAUGUACAGAAGGAGCGUCGUUGACGACAGGUAGGUCGCUGGAAACAUGAGGAUCACCCAUGUUGA [#06 Exclusion - Arginine A] — within 1.5-fold, 27.4 nM
- AAGGUGAUCCCAGAUACCAGCUCAACAUGAGGAUCACCCAUGUACGGGACGAAAGUCCCGGGCCCUUGGCAGCUGGGUUGCCAAG [SSTheo B #19] — within 1.5-fold, 42.2 nM
- CGAGUAAGUUCAAUCGAAUAACGGUUUUCGCGAGGACCGGUACGGCCGCCACUCGUGUGAUAUCACACAUGAGGAUCACCCAUGU [3'end-1] — within 1.5-fold, 42.7 nM
- UUGUGGCGCUCGGCCGCCACUCCGACAUGAGGAUCACCCAUGUUCUACAUGAGGAUCACCCAUGUGAGGACCGGGAGACACAACC [Exclusion Tryptophan B GF12] — 3.9-fold higher, 137 nM
- UUUGAGAUAACAGAUACCAGCGUGUUAUAAAACAUGAGGAUCACCCAUGUAGUGAUCAAGCGCCCUUGGCAGCUGGUGUUUUAGG [7.H] — 1.7-fold lower, 21.1 nM
- UGGGUAGCAUAGCUUGAUAGCUACACUGAAGGAGCGAGGAUAACCUCAGGUAGGUCGCAGACAUGAGGAUCACCCAUGUAGAUGG [Same State Arginine A GF18] — 1.8-fold higher, 63.9 nM
- AACAUGAGGAUCACCCAUGUCUGAACUGAAGGAGCGCUAAACAAGGCAGGUAGGUCGCGGAAUUUUGUGUGCAUAUGCAUAUGGG [9.J] — 1.6-fold lower, 22.8 nM
- CCGGCCAAUUAGAAAUUAAUUGGCCGGAAACGAGGACCGGUACGGCCGCCACUCGUGGCGGGAGAAACAUGAGGAUCACCCAUGU — 1.5-fold lower, 23 nM
- CGACGAUACCUGGAUACCAGCGACAUGAGGAUCACCCAUGUAUGUGGAUCAGCCAUGAUAUGCCCUUGGCAGCCACCAAAGUCGG [IIIMULLIN] — 2.1-fold lower, 17 nM
- GACAUGAGGAUCACCCAUGUACCGCGAGAAGGAGCGCGGAUAAACGCAGGUAGGUCGCUCGUGGGCUUGUAUUCAAUCGUAAGCU [Anlaaranan] — within 1.5-fold, 48.2 nM
- UUUACAUGAGGAUCACCCAUGUGCCAUGAUACCAGACAUGAAAAUGUCCCUUGGCAGCAUGAAAGAUCCACGUCGGAAACGACGG [Krpole] — 2-fold higher, 72.2 nM
- UCCUCCUCCGCAAGGAGGAGGAGUUGCGAUACCAGCACGGAAACGUGCCCUUGGCAGCGCACAUGAGGAUCACCCAUGUCAUGUU [#1 Exclusion - Theophylline A Attempt #9 (HarryS)] — 1.9-fold lower, 18.7 nM
- CUCCGAGGCUAUACUAUACGCCUUUGUGAUACCAGAAUAAAUAUAUUCCCUUGGCAGCAUCACAUGAGGAUCACCCAUGUGCCAU [SSTheo A #12] — 2.3-fold lower, 15.7 nM

From the supplement of paper PMC9170038
